For experiment [1], the target named is PniDAH7PS, the C-terminal CM-linked 3-deoxy-D-arabino-heptulosonate 7-phosphate synthase (DAH7PS) from Prevotella nigrescens, wild type (Prevotella nigrescens). The experiment is described as follows: SEC-SAXS.
Experiment [2] concerns the target PniDAH7PS^Δ5AA, a truncated PniDAH7PS variant with removal of C327-T331 residues (Prevotella nigrescens). The experiment can be described thus: SEC-SAXS. A general note: SEC sorts molecules by how far they enter the pores of the column.

Regarding “PniDAH7PS, the C-terminal CM-linked 3-deoxy-D-arabino-heptulosonate 7-phosphate synthase (DAH7PS) from Prevotella nigrescens, wild type (enzyme)”, the stoichiometry N (in general, the number of molecules, sites or subunits per partner or assembly) in experiment [1] is 2.
The substance “PniDAH7PS^Δ5AA, a truncated PniDAH7PS variant with removal of C327-T331 residues (enzyme)” registered a stoichiometry N in experiment [2] of 2.

The values are drawn from doi:10.1101/2021.03.29.437529.
